Assay results: patent publication US20030091584A1 (AstraZeneca / MedImmune, published 2003)
Where a chain is given by its changes, count along the chain named. Several values for one entry are separate records, joined by “and”; a condition that tells them apart may be missing. Equal values may be shown once.

B1: P12f4 (Fab fragment) (Fab, V domains shown)
VH: QVTLRESGPALVKPTQTLTLTCTFSGFSLSTPGMSVGWIRQPPGKALEWLADIWWDGKKHYNPSLKDRLTISKDTSKNQVVLKVTNMDPADTATYYCARDMIFNFYFDVWGQGTTVTVSS
VL: DIQMTQSPSTLSASVGDRVTITCSLSSRVGYMHWYQQKPGKAPKLLIYDTRGLPSGVPSRFSGSGSGTEFTLTISSLQPDDFATYYCFQGSGYPFTFGGGTKVEIK
notes: Fab
B2: P11d4 (Fab fragment) (Fab, V domains shown)
VH: B1 VH with F105W
VL: B1 VL with L25P, R51M, G52R, P54A
notes: Fab
B3: P12f2 (Fab fragment) (Fab, V domains shown)
VH: B1 VH with G57D, Q112A
VL: B1 VL with R51F, G52Y, P54S
notes: Fab
B4: A1e9 (monoclonal antibody) (antibody, V domains shown)
VH: B1 VH with F105W
VL: B1 VL with R51F, G52K, P54S
notes: mAb with framework and constant regions of SYNAGIS; also called Ale9
B5: A17d4 (Fab fragment) (Fab, V domains shown)
VH: B1 VH with P32A, H60S
VL: B1 VL with S24L, L25P, R51M, G52Y, L53Q, P54A, G90F, V103L
B6: P11d4 (monoclonal antibody) (antibody, V domains shown)
VH: B1 VH with F105W
VL: B1 VL with L25P, R51M, G52R, P54A
notes: mAb with framework and constant regions of SYNAGIS
B7: A12a6 (monoclonal antibody) (antibody, V domains shown)
VH: B1 VH with P32A, H60D
VL: B1 VL with L25A, R51F, G52K, P54S
notes: as for B6
B8: P12f4 (monoclonal antibody) (antibody, V domains shown)
VH: B1 VH
VL: B1 VL
notes: as for B6
B9: A8c7 (monoclonal antibody) (antibody, V domains shown)
VH: B1 VH with P32A, G57D, H60S, F105W
VL: B1 VL with L25A, G52Y, L53Q, P54S, V103L
notes: as for B6
B10: A8c7 (Fab fragment) (Fab, V domains shown)
VH: B1 VH with P32A, G57D, H60S, F105W
VL: B1 VL with L25A, G52Y, L53Q, P54S, V103L
B11: A1h5 (Fab fragment) (Fab, V domains shown)
VH: B1 VH with F105W
VL: B1 VL with R28S, R51F, G52F, L53H, P54R, V103L
B12: A4B4 (Fab fragment) (Fab, V domains shown)
VH: B1 VH with P32A, G57D
VL: B1 VL with L25A, R51F, G52F, P54D, V103L
B13: P12f2 (monoclonal antibody) (antibody, V domains shown)
VH: B1 VH with G57D, Q112A
VL: B1 VL with R51F, G52Y, P54S
notes: mAb with framework and constant regions of SYNAGIS; also called Pf12
B14: 1X-493L1FR (Fab fragment) (Fab, V domains shown)
VH: B1 VH with P32S, G57D, H60D, D67S, D100S, F103T, F105W, Q112A
VL: B1 VL with L25A, R28S, R51S, G52K, P54A, V103L
B15: DG (Fab fragment) (Fab, V domains shown)
VH: B1 VH with P32A, G57D, H60D, D67S, F103T, Q112A
VL: B1 VL with L25A, R28S, R51F, G52K, P54A, V103L
B16: Y10H6 (Fab fragment) (Fab, V domains shown)
VH: B1 VH with P32A, G57D, H60D, D67S, F105W, Q112A
VL: B1 VL with L25A, R28S, G52Y, P54S, V103L
B17: M3H9 (Fab fragment) (Fab, V domains shown)
VH: B1 VH with P32A, G57D, H60D, D67S, F105W, Q112A
VL: B1 VL with L25A, R28S, R51Y, G52K, L53Q, P54T, V103L
B18: 6H8 (Fab fragment) (Fab, V domains shown)
VH: B1 VH with P32A, G57D, H60D, D67S, F103T, Q112A
VL: B1 VL with L25A, R28S, R51F, G52K, P54T, V103L
B19: H3-3F4 (Fab fragment) (Fab, V domains shown)
VH: B1 VH with P32A, G57D, H60D, D67S, F105W, Q112A
VL: B1 VL with L25A, R28S, R51F, G52K, P54A, V103L

Target: T1, F protein of wild type RSV A/Long (respiratory syncytial virus strain …, UniProt P12568 26-574)
Test: cell-based or functional assay

Row | Binder | EC50 (nM), in vitro microneutralization of RSV Long [nM]
1 | B1 | 0.7
2 | B2 | > 20
3 | B3 | 0.65

Target: T1, F protein of wild type RSV A/Long
Test: cell-based or functional assay
Remark: another data set of the same source

Row | Binder | Fold Difference (Control IC50) [fold] | Fold Difference (Curve IC50) [fold] | Mean IC50 (Control), RSV microneutralization [µg/mL] | Mean IC50 (Curve), RSV microneutralization [µg/mL]
4 | B4 | 8 | 7 | 0.0645 | 0.0625
5 | B5 | 31 | 25 | 0.0171 | 0.0179
6 | B6 | 19 | 21 | 0.0289 | 0.0217
7 | B7 | 15 | 13 | 0.0354 | 0.0357
8 | B8 | 23 | 19 | 0.0235 | 0.0242
9 | B1 | 15 | 10 | 0.0351 | 0.0464
10 | B2 | – | – | > 1 | > 1
11 | B9 | 14 | 13 | 0.0383 | 0.0337
12 | B10 | 34 | 3 | 0.157 | 0.177
13 | B11 | 3 | 2 | 0.176 | 0.194
14 | B12 | 13 | 11 | 0.0411 | 0.0414
15 | B3 | 16 | 11 | 0.0326 | 0.0407
16 | B13 | 24 | 20 | 0.0223 | 0.0231

Target: T2, RSV F glycoprotein (NUF4) (respiratory syncytial virus)
T2 chain 1: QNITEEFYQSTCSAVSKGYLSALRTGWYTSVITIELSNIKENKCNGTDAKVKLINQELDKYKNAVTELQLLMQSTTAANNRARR
T2 chain 2: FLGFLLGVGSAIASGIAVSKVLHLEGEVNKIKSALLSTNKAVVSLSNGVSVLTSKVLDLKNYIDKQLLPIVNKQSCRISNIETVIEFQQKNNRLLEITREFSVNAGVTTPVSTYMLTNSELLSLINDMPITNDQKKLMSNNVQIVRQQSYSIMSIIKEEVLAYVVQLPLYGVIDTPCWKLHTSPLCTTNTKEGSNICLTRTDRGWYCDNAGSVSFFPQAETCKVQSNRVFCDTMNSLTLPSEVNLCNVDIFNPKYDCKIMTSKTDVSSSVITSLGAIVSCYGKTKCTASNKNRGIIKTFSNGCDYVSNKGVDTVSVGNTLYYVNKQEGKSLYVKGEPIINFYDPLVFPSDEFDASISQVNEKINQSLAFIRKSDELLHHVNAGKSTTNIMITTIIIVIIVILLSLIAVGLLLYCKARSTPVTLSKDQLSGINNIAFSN
Test: BIAcore, mAb vs NUF4 (1:1)

Row | Binder | Kd [nM] | koff [s⁻¹] | kon [M⁻¹ s⁻¹] | number in parentheses after KD (fold against SYNAGIS = 1) [fold]
17 | B4 | 0.69 | 0.000584 | 843000 | 13
18 | B6 | 0.85 | 0.000766 | 904000 | 10
19 | B7 | 0.73 | 0.000291 | 400000 | 12
20 | B8 | 0.24 | 0.000229 | 943000 | 36
21 | B9 | 0.65 | 0.000535 | 825000 | 13
22 | B13 | 0.33 | 0.000178 | 541000 | 26

Target: T2, RSV F glycoprotein (NUF4)
Test: BIAcore, mAb vs NUF4 (2:1)

Row | Binder | Kd [nM] | koff [s⁻¹] | kon [M⁻¹ s⁻¹] | number in parentheses after KD (fold against SYNAGIS = 1) [fold]
23 | B4 | 4.22 | 0.00139 | 329000 | 74
24 | B6 | 8.55 | 0.00313 | 366000 | 36
25 | B7 | 1.87 | 0.000408 | 218000 | 167
26 | B8 | 2.33 | 0.000636 | 273000 | 134
27 | B9 | 2.65 | 0.00114 | 430000 | 118
28 | B13 | 0.84 | 0.000236 | 282000 | 371

Target: RSV F protein (immobilized on the BIAcore sensor chip) (respiratory syncytial virus)
Test: BIAcore, immobilized F protein;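 further: fab fragments as analytes binding F protein coupled to the chip via EDC/NHS chemistry, with blank surface signal subtracted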

Row | Binder | koff | kon
29 | B14 | 0.00065 s⁻¹ | 185000 M⁻¹ s⁻¹
30 | B1 | 0.000299 s⁻¹ | 527000 M⁻¹ s⁻¹
31 | B15 | 0.000167 s⁻¹ and 0.000444 s⁻¹ | –
32 | B16 | 0.000462 s⁻¹ | 757000 M⁻¹ s⁻¹
33 | B2 | 0.000717 s⁻¹ | 570000 M⁻¹ s⁻¹ and 572000 M⁻¹ s⁻¹
34 | B17 | 0.000338 s⁻¹ | 605000 M⁻¹ s⁻¹
35 | B18 | 0.000178 s⁻¹ and 0.000473 s⁻¹ | 314000 M⁻¹ s⁻¹ and 444000 M⁻¹ s⁻¹
36 | B3 | 0.000282 s⁻¹ | 663000 M⁻¹ s⁻¹
37 | B19 | 0.000445 s⁻¹ and 0.000402 s⁻¹ | –
